These results are taken from paper PMC4049591.

Series [1] in a line: cycloheximide chase of SHH-C, HA immunoblot. As to conditions: glycan changed form; control: untreated cells.
Series [2] is described as follows: HA immunoblot of auto-cleavage. Conditions: glycan lost; control: wild-type SHH-HA.

Regarding sonic hedgehog (SHH): kifunensine (KIF), the degradation_or_half_life entry in series [1] is “decreases”.

For sonic hedgehog (SHH): N278A, in series [2], the “other: proteolytic processing” value was “abolishes”.

As for “sonic hedgehog (SHH): castanospermine (CST)”, the degradation_or_half_life entry in series [1] is “decreases”.
